Consider one substance from patent US20100239605A1.

The target of assay [1] is HRV14-NimII-XXX17AA library (Human rhinovirus 14; influenza type A virus) (UniProt P03303). Kind of assay: cell-based or functional assay.
The target in assay [2] is HRV14-NimII-XXX23AA library (Human rhinovirus 14; influenza type A virus) (UniProt P03303). In words: cell-based or functional assay.

Regarding “anti-M2e Mab 14C2 (Abcam, Inc; Cat# ab5416) (antibody)”, the Fifty-percent neutralization (PRNT) (reciprocal dilution of 1 mg/ml stock) in assay [1] and in assay [2] was 2e+06 throughout.
